Experimental findings from US12356911B2, “Group of UDP-glycosyltransferase for catalyzing carbohydrate chain elongation and application thereof” (GSYNBIOT (SHANGHAI) CO., LTD, priority 2017, dated 2025) are described below.

Format in all cases: biochemical
Data set [1] can be described thus: In vitro transglycosylation at C-20, Rd as glycosyl acceptor, UDP-glucose as donor. The settings on record: crude enzyme (E. coli lysate supernatant); TLC/HPLC, FIG. 2, 3, 11. From the text: (§1) Cell lysate of recombinant E. coli with empty vector pET28a was used as a control.
The nature of data set [2]: In vitro transglycosylation at C-20, F1 as glycosyl acceptor, UDP-glucose as donor. To be noted: crude enzyme (E. coli lysate supernatant); TLC and HPLC, FIG. 5, FIG. 6.
Data set [3] is described as follows: In vitro transglycosylation at C-20, CK as glycosyl acceptor, UDP-glucose as donor. To be noted: crude enzyme (E. coli lysate supernatant); TLC/HPLC, FIG. 2, 3, 12, 16.
Source text: as §1
As shown in FIG. 16: Protopanaxadiol Ginsenoside CK is used as a glycosyl acceptor, and UDP-glucose is used as a glycosyl donor.

The nature of data set [4]: In vitro transglycosylation at C-20, CK as glycosyl acceptor, UDP-arabinose as donor. The settings on record: crude enzyme (E. coli lysate supernatant); TLC, FIG. 17.
Data set [5] in a line: In vitro transglycosylation at C-20, Rd as glycosyl acceptor, UDP-xylose as donor. To be noted: crude enzyme (E. coli lysate supernatant); TLC and HPLC, FIG. 2, FIG. 4.
Data set [6] in a line: In vitro transglycosylation at C-3, Rh2 as glycosyl acceptor, UDP-glucose as donor. To be noted: crude enzyme (E. coli lysate supernatant); TLC, FIG. 13, FIG. 15.
Source text: as §1

Data set [7] in a line: In vitro transglycosylation at C-6, Rg1 as glycosyl acceptor, UDP-xylose as donor. To be noted: crude enzyme (E. coli lysate supernatant); TLC and HPLC, FIG. 7-9.
Data set [8] can be described thus: In vitro transglycosylation at C-3, F2 as glycosyl acceptor, UDP-glucose as donor. To be noted: crude enzyme (E. coli lysate supernatant).

B1: GT29-32: Ginseng UDP-glycosyltransferase, 442 amino acids, SEQ ID NO: 4 (protein)
chain: MDNQEGRISIALLPFLAHGHISPFFELAKQLAKRNCNVFLCSTPINLSSIKNKDSSASIKLVELHLPSSPDLPPHYHTTNGLPSHLMVPLRNAFETAAPTFSEILKTLNPDLLIYDFNPSWAPEIASSHNIPAVYFLTSAAATSSMGLHAFKNSGEKYPFPDFYDNSNITPEPPSADKMKLFHDFVACFKRSCDIILIKSFRELEGKYIDFLSTLSKKTLVPVGPLVQDPMGHDEDPKTGHLINWLDKRAESTVVFVCFGSEYFPSNEELEELAIGLEISMVSFILAVRFPEGEKKGILPEGFVQRVGDRGLVVEGWAPQARILGHSSTGGFVSHCGWSSIMESVKFGVPVIAMARHLDQPLNAKLAAEVGVGMEVMRDENGKYKREAIAEVIRKVVMEKNGEVMRRKARELSEKMKEIGEQLIDRAVEELVQICKKKKDEQ
modifications: misc_feature - GT29-32; Panax ginseng
On to B1, for which the “product formation from Rd and UDP-glucose (Rb1)” value in data set [1] is recorded as “can catalyze the formation of Rb1”. For the same molecule, the “product formation from F1 and UDP-glucose” value in data set [2] is listed as “can catalyze the formation of a new product”. Also, the “product formation from CK and UDP-glucose (Gypenoside LXXV)” value in data set [3] is “can catalyze the formation of a new product”. Also, in data set [4], the “product formation from CK and UDP-arabinose (Ginsenoside F3)” value is listed as “can catalyze the first glycosyl of C-20 of CK to extend an arabinosyl to generate Ginsenoside F3”. Moreover, the “product formation from Rd and UDP-xylose (one product with the mobility of Rb3)” value in data set [5] is “can catalyze Rd to produce three products”.

B2: GT29-25: Ginseng UDP-glycosyltransferase, 446 amino acids, SEQ ID NO: 30 (protein)
chain: MDNQKGRISIVMLPFLAHGHISPFFELAKHLSKRNCNIFLCSTPINLSSIKNRISDKDSSASIKLVELHLPSSPDLPPHYHTTNGLPSHLMVPLRNAFETAAPTFSEILKTLNPDLLIYDFNPSWAPEIASSHNIPAVCFIIGGAASFSMSLHSFKNPGEKYPFLDFDDNSNITPEPPSADNMKLLLDFMTCFERSCDIILIKSFRELEGKYFDFYSTLSDKTLVPVGPLVQDPMGHNEDPKTEQFINWLDKRAESTVVFVCFGSEYFLSNEELEEVAIGLEISMVNFIWAVRLIEGEKKGVLPEGFVQRVGDRGLVVEGWAPQARILGHSSTGGFVSHCGWSSITESMKFGVPVIAMARHFDQPLNAKLAAEVGVGTEVVRDENGKYKREDIAGVIRKVVVEKSGEVIRRKARELSEKMKEIGEQLIDRAVEELVQICKKKKDEQ
modifications: misc_feature - GT29-25; Panax ginseng
Consider B2, for which the “product formation from Rh2 and UDP-glucose (Rg3)” value in data set [6] is recorded as “catalyze the production of ginsenoside Rg3”. Besides, in data set [7], the “product formation from Rg1 and UDP-xylose (notoginsenoside R1)” value is on record as “can catalyze the formation of Notoginsenoside RI”. Also, the “product formation from F2 and UDP-glucose (Rd)” value in data set [8] is “can further catalyze the extension of a glucosyl at the C-3 glycosyl of F2 to produce ginsenoside Rd”.

B3: GT29-24: Ginseng UDP-glycosyltransferase, 446 amino acids, SEQ ID NO: 28 (protein)
chain: MDNQKGRISIVMLPFLAHGHISPFFELAKHLSKRNCNIFLCSTPINLSSIKNRISDKDSSASIKLVELHLPSSPDLPPHYHTTNGLPSHLMVPLRNAFETAAPTFSEILKTLNPDLLIYDFNPSWAPEIASSHNIPAVCFIIGGAASFSMSLHSFKNPGEKYPFLDFDDNSNITPEPPSADNMKLLLDFMTCFERSCDIILIKSFRELEGKYFDFYSTLSDKTLVPVGPLVQDPMGHNEDPKTEQFINWLDKRAESTVVFVCFGSEYFLSNEELEEVAIGLEISMVNFIWAVRLIEGEKKGVLPEGFVQRVGDRGLVVEGWAPQARILGHSSTGGFVSHCGWSSITESMKFGVPVIAMARHFDQPLNAKLAAEVGVGMEVVRDENGKYKREGIAEVIRKVVVEKSGEVMRRKARELSEKMKEKGEEEIDRAVEELVQICKKKKDAQ
modifications: misc_feature - GT29-24; Panax ginseng
Turning to B3, in data set [6], the “product formation from Rh2 and UDP-glucose (Rg3)” value is “catalyze the production of ginsenoside Rg3”. Moreover, the “product formation from Rg1 and UDP-xylose (notoginsenoside R1)” value in data set [7] is on record as “can catalyze the formation of Notoginsenoside RI”. In addition, the “product formation from F2 and UDP-glucose (Rd)” value in data set [8] is “can further catalyze the extension of a glucosyl at the C-3 glycosyl of F2 to produce ginsenoside Rd”.
